Test results reported in US7427404.

Molecular target: monoclonal anti-S1 antibody 1B7
Assay: competition RIA: 1B7 coated on plate, 125I-PT displaced by unlabelled toxin

## PT-9K (from UniProt P04978 28-226; P04979 29-227; P0A3R5 43-152; P04981 35-133)
  Ka: 8.9e+08 M⁻¹
